The record followed here is PMC2191977 (The Journal of Experimental Medicine, 1995).

Assay in all cases: flow cytometry on cells
On the technique in general: A flow cytometer gives signals particle by particle.

One assay addresses T1, B7 E199A (mouse, UniProt Q00609 38-306, E199A).
T1 sequence (looked up): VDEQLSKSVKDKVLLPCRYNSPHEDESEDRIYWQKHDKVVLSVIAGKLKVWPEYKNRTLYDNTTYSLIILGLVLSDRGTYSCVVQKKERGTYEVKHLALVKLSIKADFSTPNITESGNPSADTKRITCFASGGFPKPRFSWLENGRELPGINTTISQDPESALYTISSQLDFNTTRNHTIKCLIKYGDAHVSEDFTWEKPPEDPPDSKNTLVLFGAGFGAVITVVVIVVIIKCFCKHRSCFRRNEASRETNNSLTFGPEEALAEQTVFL

The target of the next assay is T2, B7 LE/VD (L179V, E180D) (mouse, UniProt Q00609 38-306, L179E180>VD).
T2 sequence (looked up): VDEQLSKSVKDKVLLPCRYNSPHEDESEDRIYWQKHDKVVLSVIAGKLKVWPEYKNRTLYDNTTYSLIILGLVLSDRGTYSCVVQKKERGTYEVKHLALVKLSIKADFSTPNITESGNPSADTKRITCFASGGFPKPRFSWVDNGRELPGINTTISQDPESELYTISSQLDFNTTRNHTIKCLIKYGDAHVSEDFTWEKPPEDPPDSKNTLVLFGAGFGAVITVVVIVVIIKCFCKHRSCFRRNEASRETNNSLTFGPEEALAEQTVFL

A further assay deals with T3, B7 S177A (mouse, UniProt Q00609 38-306, S177A).
T3 sequence (looked up): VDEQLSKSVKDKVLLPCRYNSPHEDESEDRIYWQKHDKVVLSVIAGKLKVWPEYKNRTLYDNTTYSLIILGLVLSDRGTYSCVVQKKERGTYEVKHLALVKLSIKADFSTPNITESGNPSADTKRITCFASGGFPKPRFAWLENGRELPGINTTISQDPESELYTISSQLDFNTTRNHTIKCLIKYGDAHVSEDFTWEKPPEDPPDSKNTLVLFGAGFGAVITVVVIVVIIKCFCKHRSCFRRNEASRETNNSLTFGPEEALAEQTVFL

For the next assay, the target named is T4, B7 K173E (mouse, UniProt Q00609 38-306, K173E).
T4 sequence (looked up): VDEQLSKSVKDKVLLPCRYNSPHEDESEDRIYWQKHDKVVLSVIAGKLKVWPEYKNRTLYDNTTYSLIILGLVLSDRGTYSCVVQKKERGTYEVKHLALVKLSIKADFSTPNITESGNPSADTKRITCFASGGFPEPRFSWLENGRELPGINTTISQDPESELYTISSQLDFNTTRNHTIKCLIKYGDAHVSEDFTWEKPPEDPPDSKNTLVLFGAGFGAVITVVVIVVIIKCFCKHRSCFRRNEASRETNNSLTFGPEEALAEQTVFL

The next assay has as its target T5, B7 R175S (mouse, UniProt Q00609 38-306, R175>S (CGC>AGC)).
T5 sequence (looked up): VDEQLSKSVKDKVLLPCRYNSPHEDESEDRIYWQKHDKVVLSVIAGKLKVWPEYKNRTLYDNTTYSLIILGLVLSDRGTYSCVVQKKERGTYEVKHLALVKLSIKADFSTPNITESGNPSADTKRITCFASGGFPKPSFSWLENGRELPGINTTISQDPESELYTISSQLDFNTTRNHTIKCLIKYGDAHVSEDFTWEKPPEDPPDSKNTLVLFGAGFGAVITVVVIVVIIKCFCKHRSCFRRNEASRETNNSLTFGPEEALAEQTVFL

The target in a further assay is T6, B7 L200A (mouse, UniProt Q00609 38-306, L200A).
T6 sequence (looked up): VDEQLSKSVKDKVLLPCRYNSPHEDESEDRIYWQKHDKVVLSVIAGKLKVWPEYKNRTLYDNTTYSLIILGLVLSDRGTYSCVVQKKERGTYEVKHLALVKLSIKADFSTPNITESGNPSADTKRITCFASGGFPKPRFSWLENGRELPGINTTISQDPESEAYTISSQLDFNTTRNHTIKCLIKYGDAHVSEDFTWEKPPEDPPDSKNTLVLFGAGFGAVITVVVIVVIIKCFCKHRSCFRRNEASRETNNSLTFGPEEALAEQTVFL

B1: CD28Ig (Fc fusion, mouse, UniProt P31041 20-150, looked up)
chain: NKILVKQSPLLVVDSNEVSLSCRYSYNLLAKEFRASLYKGVNSDVEVCVGNGNFTYQPQFRSNAEFNCDGDFDNETVTFRLWNLHVNHTDIYFCKIEFMYPPPYLDNERSNGTIIHIKEKHLCHTQSSPKL
Regarding B1, the “% wild-type B7 binding (normalised to anti-B7 mAb 10.16A.1)” value with B7 E199A was 31%; in the assay with B7 LE/VD (L179V, E180D), 40%; in the assay with B7 S177A it was 63%; with B7 K173E, 77%; with B7 R175S, 26%; in the assay with B7 L200A it was 53%. The “MF (mean fluorescence, control subtracted)” value came to 16 MF in the assay with B7 E199A; 16 MF in the assay with B7 LE/VD (L179V, E180D); 40 MF with B7 S177A; 44 MF with B7 K173E; 15 MF in the assay with B7 R175S; 28 MF with B7 L200A.
